Kd data for two substances are collected here from paper PMC8913300, “Two distinct classes of cochaperones compete for the EEVD motif in heat shock protein 70 to tune its chaperone activities” (The Journal of Biological Chemistry, 2022).

The target in assay [1] is Hsp70 EEVD motif (Homo sapiens) (UniProt P0DMV8). As to conditions: cited from earlier work.
In assay [2] the target is Hsp72 tracer FITC-Ahx-…. In words: fluorescence polarisation; saturation binding; 20 nM fluorescent Hsp72 tracer, J-domain protein titrated in 2x dilutions (110-0.013 μM told for DnaJB4); 50 mM Tris, 15 mM NaCl, 1 mM DTT, 0.01% Triton X-100, pH 8.0; 30 min at room temperature.

Chain of DnaJB1 CTD I (P25685 161-243): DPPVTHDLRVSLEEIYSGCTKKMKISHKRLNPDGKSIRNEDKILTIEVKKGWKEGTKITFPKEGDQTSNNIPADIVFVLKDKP
Chain of Hsp70 EEVD motif (Homo sapiens) (P0DMV8 whole entry, looked up): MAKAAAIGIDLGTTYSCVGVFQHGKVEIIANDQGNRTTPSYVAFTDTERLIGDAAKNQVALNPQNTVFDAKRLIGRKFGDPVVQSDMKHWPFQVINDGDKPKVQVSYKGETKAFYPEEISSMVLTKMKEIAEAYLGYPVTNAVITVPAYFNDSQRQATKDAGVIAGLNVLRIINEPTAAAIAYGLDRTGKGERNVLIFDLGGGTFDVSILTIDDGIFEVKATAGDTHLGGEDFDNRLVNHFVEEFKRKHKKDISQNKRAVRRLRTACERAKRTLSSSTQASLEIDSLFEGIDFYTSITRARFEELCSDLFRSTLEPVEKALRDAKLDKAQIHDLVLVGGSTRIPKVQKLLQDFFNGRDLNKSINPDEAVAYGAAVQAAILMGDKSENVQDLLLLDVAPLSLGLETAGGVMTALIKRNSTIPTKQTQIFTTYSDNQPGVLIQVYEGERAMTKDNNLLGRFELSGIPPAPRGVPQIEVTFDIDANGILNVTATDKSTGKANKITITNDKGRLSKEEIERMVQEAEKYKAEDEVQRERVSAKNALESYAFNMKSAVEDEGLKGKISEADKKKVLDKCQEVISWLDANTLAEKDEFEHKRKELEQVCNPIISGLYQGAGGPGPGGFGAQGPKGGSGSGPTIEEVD

For DnaJB1 CTD I (from UniProt P25685), the Kd (in general, the concentration at which binding is half-saturated) in assay [1] is 15 µM.
As for “DnaJB4 QPD mutant (from UniProt Q9UDY4 1-337) (natural protein)”, the Kd in assay [2] came out at 2.44 µM.
